Measured values taken from US20220380459A1 (DRAGONFLY THERAPEUTICS, published 2022).
Numbering of substitutions follows the chain as printed. Read-outs that look alike come from different tables or passages of the source. Each block holds one binder with its values, some of them ahead of it.

Legend:
Experiment in all cases: SPR, Fab captured, 37C
[1] = target: T1, C domain of human CD33 (human, UniProt P20138 140-259, limits assumed)
T1 construct: recombinant C domain
Experimental: (§1) Kinetics and affinity of a series of Fab fragments of anti-CD33 antibodies with different CD33 variants (human CD33 ECD, cyno CD33 ECD, V-domain of human CD33, C-domain or human CD33 and selected CD33 SNPs) were assessed by surface plasmon resonance using Biacore 8K instrument (GE Healthcare). Anti-Fab antibody was immobilized on a CMS chip using standard amine coupling chemistry. CD33 FABs were captured on the anti-Fab chip at a density of ˜100 RU. Solutions containing different concentrations of soluble monomeric CD33 or its domains were injected over the captured FABs and control surfaces at 30 μl/min at 37° C. Surfaces were regenerated between cycles by quick injection of 10 mM glycine, pH 1.8. To obtain kinetic rate constants double-referenced data were fit to a 1:1 interaction model using Biacore 8K Evaluation software (GE Healthcare). The equilibrium binding constant KD was determined by the ratio of binding rate constants kd/kₐ.
The binding interface between the Fab fragment of each CD33 antibody to CD33 was mapped.

[2] = target: T2, human CD33 extracellular domain (human, UniProt P20138 18-259)
T2 construct: soluble monomeric ECD; also called human CD33 ECD; hCD33

[3] = target: T3, cyno CD33 extracellular domain (Cynomolgus/Rhesus (cyno))
T3 construct: soluble monomeric ECD; also called cyno CD33 ECD

[4] = target: T2, human CD33 extracellular domain; remark: listed apart in the source
Experimental: as §1

[5] = target: T4, V domain of human CD33 (human, UniProt P20138 18-139, limits assumed)
T4 construct: recombinant, fully glycosylated V domain; also called Human CD33 V domain
Experimental: as §1

[6] = target: T4, V domain of human CD33; remark: listed apart in the source
Experimental: as §1
(§2) The ability of anti-CD33 antibodies to recognize glycosylated CD33 was assayed. […] De-glycosylation status was confirmed by a shift on SDS-PAGE and MS.

[7] = target: T5, deglycosylated V domain of human CD33 (human, UniProt P20138 18-139, limits assumed, N-glycans removed by PNGase)
T5 construct: V domain deglycosylated by PNGase before testing; also called deglycosylated V CD33
Experimental: as §1, §2

[8] = target: T2, human CD33 extracellular domain; remark: listed apart in the source
Experimental: as §1
(§3) Affinity of 29 Fab fragments binding to human and cyno CD33 ECD were assayed by Biacore analysis.

[9] = target: T2, human CD33 extracellular domain; remark: listed apart in the source
Experimental: as §1, §3

- binding result [1]: no binding
- Kd [2]: 58.8 nM
- binding result [3]: no binding (tested: 100 nM)
- Kd [4]: 58.8 nM
- Kd [7]: 200 nM
- Kd [8]: 58.8 nM
- Kd [9]: 58.8 nM
B3: ADI-10173 Fab (Fab, V domains shown)
VH: QVQLVQSGAEVKKPGASVKVSCKASGYTFTSYYMHWVRQAPGQGLEWMGIINPSGGSTTYAQKFQGRVTMTRDTSTSTVYMELSSLRSEDTAVYYCAREAADGFVGERYFDLWGRGTLVTVSS
VL: not shown
notes: Fab fragment; also called Ab22

- binding result [1]: no binding
- Kd [2]: 2.69 nM
- koff [2]: 0.0076 s⁻¹
- kon [2]: 2.82e+06 M⁻¹ s⁻¹
- binding result [3]: no binding (tested: 100 nM)
- Kd [4]: 2.69 nM
- koff [4]: 0.0076 s⁻¹
- kon [4]: 2.82e+06 M⁻¹ s⁻¹
- Kd [5]: 134 nM
- koff [5]: 0.0151 s⁻¹
- kon [5]: 112000 M⁻¹ s⁻¹
- Kd [6]: 134 nM
- koff [6]: 0.0151 s⁻¹
- kon [6]: 112000 M⁻¹ s⁻¹
- Kd [7]: 63.8 nM
- koff [7]: 0.0261 s⁻¹
- kon [7]: 411000 M⁻¹ s⁻¹
- Kd [8]: 2.69 nM
- koff [8]: 0.0076 s⁻¹
- kon [8]: 2.82e+06 M⁻¹ s⁻¹
- Kd [9]: 2.69 nM
- koff [9]: 0.0076 s⁻¹
B4: ADI-10157 Fab (Fab, V domains shown)
VH: QVQLQESGPGLVKPSETLSLTCTVSGGSISSYYWSWIRQPPGKGLEWIGSIYYSGSTNYNPSLKSRVTISVDTSKNQFSLKLSSVTAADTAVYYCARVGGVYSTIETYGMDVWGQGTTVTVSS
VL: EIVMTQSPATLSVSPGERATLSCRASQSVSSNLAWYQQKPGQAPRLLIYGASTRATGIPARFSGSGSGTEFTLTISSLQSEDFAVYYCQQYTVYPPTFGGGTKVEIK
notes: Fab fragment; also called Ab13

- binding result [1]: no binding
- Kd [2]: 11.4 nM
- koff [2]: 0.00636 s⁻¹
- kon [2]: 558000 M⁻¹ s⁻¹
- Kd [3]: 21.4 nM
- koff [3]: 0.00754 s⁻¹
- kon [3]: 353000 M⁻¹ s⁻¹
- Kd [4]: 11.4 nM
- koff [4]: 0.00636 s⁻¹
- kon [4]: 558000 M⁻¹ s⁻¹
- Kd [5]: 54.8 nM
- koff [5]: 0.0857 s⁻¹
- kon [5]: 1.56e+06 M⁻¹ s⁻¹
- Kd [6]: 54.8 nM
- koff [6]: 0.0857 s⁻¹
- kon [6]: 1.56e+06 M⁻¹ s⁻¹
- Kd [7]: 38.2 nM
- koff [7]: 0.0701 s⁻¹
- kon [7]: 1.88e+06 M⁻¹ s⁻¹
- Kd [8]: 11.4 nM
- koff [8]: 0.00636 s⁻¹
- kon [8]: 558000 M⁻¹ s⁻¹
B5: ADI-10177 Fab (Fab, V domains shown)
VH: EVQLVESGGGLVQPGGSLRLSCAASGFTFSSYWMSWVRQAPGKGLEWVANIKQDGSEKYYVDSVKGRFTISRDNAKNSLYLQMNSLRAEDTAVYYCARPLNAGELDVWGQGTMVTVSS
VL: DIQMTQSPSTLSASVGDRVTITCRASQSISSWLAWYQQKPGKAPKLLIYEASSLESGVPSRFSGSGSGTEFTLTISSLQPDDFATYYCQQLESYPLTFGGGTKVEIK
notes: Fab fragment; also called Ab2

Further lines, the binder ahead of its results:

B1: ADI-11835 Fab (Fab, V domains shown)
VH: QLQLQESGPGLVKPSETLSLTCTVSGGSISSTDYYWGWIRQPPGKGLEWIGSIGYSGTYYNPSLKSRVTISVDTSKNQFSLKLSSVTAADTAVYYCARETAHDVHGMDVWGQGTTVTVSS
VL: EIVLTQSPATLSLSPGERATLSCRASHSVYSYLAWYQQKPGQAPRLLIYDASNRATGIPARFSGSGSGTDFTLTISSLEPEDFAVYYCQQYDNLPTFGGGTKVEIK
notes: Fab fragment; also called Ab10; I35
- binding result [1]: no binding
- Kd [2]: 0.53 nM
- koff [2]: 0.00143 s⁻¹
- kon [2]: 2.6e+06 M⁻¹ s⁻¹
- Kd [3]: 6.86 nM
- koff [3]: 0.0189 s⁻¹
- kon [3]: 2.76e+06 M⁻¹ s⁻¹
- Kd [4]: 0.53 nM
- koff [4]: 0.00143 s⁻¹
- kon [4]: 2.6e+06 M⁻¹ s⁻¹
- Kd [5]: 1.14 nM
- koff [5]: 0.00868 s⁻¹
- kon [5]: 7.6e+06 M⁻¹ s⁻¹
- Kd [6]: 1.14 nM
- koff [6]: 0.00868 s⁻¹
- kon [6]: 7.6e+06 M⁻¹ s⁻¹
- Kd [7]: 0.98 nM
- koff [7]: 0.00779 s⁻¹
- kon [7]: 7.94e+06 M⁻¹ s⁻¹
- Kd [8]: 0.53 nM
- koff [8]: 0.00143 s⁻¹
- kon [8]: 2.6e+06 M⁻¹ s⁻¹

B2: ADI-11802 Fab (Fab, V domains shown)
VH: B3 VH with T30S, S31G, I50M, S54Y, T59R
VL: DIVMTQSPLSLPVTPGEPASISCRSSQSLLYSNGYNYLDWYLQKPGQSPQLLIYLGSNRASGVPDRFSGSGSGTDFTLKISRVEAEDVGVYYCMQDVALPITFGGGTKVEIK
notes: Fab fragment; also called Ab23
- binding result [1]: no binding
- Kd [2]: 3.14 nM
- koff [2]: 0.00154 s⁻¹
- kon [2]: 490000 M⁻¹ s⁻¹
- binding result [3]: no binding (tested: 100 nM)
- Kd [4]: 3.14 nM
- koff [4]: 0.00154 s⁻¹
- kon [4]: 490000 M⁻¹ s⁻¹
- Kd [5]: 3.2 nM
- koff [5]: 0.00435 s⁻¹
- kon [5]: 1.34e+06 M⁻¹ s⁻¹
- Kd [6]: 3.2 nM
- koff [6]: 0.00435 s⁻¹
- kon [6]: 1.34e+06 M⁻¹ s⁻¹
- Kd [7]: 2.65 nM
- koff [7]: 0.00417 s⁻¹
- kon [7]: 1.57e+06 M⁻¹ s⁻¹
- Kd [8]: 3.14 nM
- koff [8]: 0.00154 s⁻¹
- kon [8]: 490000 M⁻¹ s⁻¹
- Kd [9]: 3.14 nM
- koff [9]: 0.00154 s⁻¹
